# Measurements published in the nanobody polyreactivity screen of Harvey et al. (2022).
# Assay: yeast display, Sf9 membrane polyspecificity reagent, FACS + sequencing; frameworks hold sequencing errors
# In short: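 Galactose induction of a Saccharomyces cerevisiae BJ5465 synthetic nanobody display library ran 36–48 hours. The cells were then stained for 1 hour at 4 °C with 10% biotinylated, detergent-solubilized Sf9 membrane reagent, pulled down on streptavidin microbeads and FACS-sorted into low and high (top ~1%) gates on expression and reagent-binding fluorescence. Labels for polyreactivity follow the gate of origin.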
row,Sequence,polyreactivity (PSR sort gate)
1,QVQLVESGGCLVQAGGRLRLSCAASGFTFNAYSMGWYRQAPGKERELVAAINVSGGITYYADSVKGRFTISRDNAKNTVYLQMNSLKPEDTAVYYCARDIRQYILYGRGDYWGQGTQVTVSS,low polyreactivity
2,QVQLVESGGGLVQAGGSHRLSCAASGITFNVYAMGWYRQATGKERELVAAISYNGGRTYYADSVKGRFTISRDNAKNTVYLQMNSLKPEDTAVYYCNTVSLSLRYDYWGQGTQVTVSS,high polyreactivity
3,QVQLVESGGGLVHAGGSLRLSCAASGRISSSYAMGWYRQAPGKERELVAAITSRGGSTYYADSVKGRFTISRDNAKNTVYLQMNSLKPEDTAVYYCAKYQYYRSTDDYWGQGTQVTVSS,low polyreactivity
4,QVQLVESGGGLVQAGGSLRLSCAASGSTFYYYAMGWYRQAPGTAREWVAAISYSGGRTYYADSVKGRFTISRDHAKNTDDIQMNSLKPEYTAVYYCATGQPILALRYAYGYWGQATQVTVSS,low polyreactivity
5,QVQLVESGGGLVQAGGSLRLSCAASGSTFYAYAMGWYRHAPGKERELVAAIDSGGSTYYADSVKGRFTISRDNAKNTVYFQMNSLKPEDTAVYYCAVRHRYTRAYWGRDYWGQGTQVTVSS,low polyreactivity
6,QVQLVESGGGLVQAGGSLRLSCDASGLIFPWNSMGWYRQAPGQERELVAAINGRDGSTYYADSVKGRFTISRDNAKNTVYLQMNSLKPEDTAVFYCAKGPSGVRTYREYDSWGQGTQVTVSS,low polyreactivity
7,QVQLVESGGGLVQAGGSLRLSCAASGSIFDYNAMGWYRQAPGKERELVASISGDSGSTYYADSVKGRFTISRDNAKNTDYLQMNSLKPEDTAVYYCAAPYVSWDYRYYYWGQGTQVTLSS,low polyreactivity
8,QVQLVESGGGLVQAGGSLRLSCAASGIIFYGYVMGWYRQAPGKERELVATITSSGGSTYYADSVKGRFTISRDNAKNSVYLQMNSLKPEDTAVYYCAADYYYGAWVRHDYWGQGTQVTVSS,low polyreactivity
9,QVQLVESGGGLVQPGGSLRLSCAASGRIFYRYAMGWYRQAPGKERELVAAITARGGSTYYADSVKGRFTISRDNAKNTVYLQMNCLKPEDTAVYYCNKLLSNPYYPSYDYWGQGTQVTVSS,high polyreactivity
10,QVQPVESGGGLVQAGGSLRLSCAASGSTLGHNAMGWYRQAPGKERELVAAITSSGGRTYYADSVKGRFTISRDNAKNTVYLQMNSLKPEDTAVYYCAADDTDYPEYDYWGQGTQVTVSS,high polyreactivity
11,QVQLVESGGGLLQAGGSLRVSCAASGFIFVLYAMGWYRQAPGKERELVAAITWSTGCTYYADSVKGRFTISRDNAKNTVYLHMNSLKPEDTAVYYCSADQYIFGIWFDYWGQGTQVTVSS,high polyreactivity
12,QVQLVESGGGLVQAGGSLRLSCAASGSTFPWYAMVWYRQAPGKERELVAAIRWRGGSTYYADSVKGRFTISRDNAKNTVYLQMNSLKPEDTAVYYCAADPTYLRTLRFGSYDYWGQGTQVTVSS,high polyreactivity
13,QVQLVESGGGLVQAGGSLRLSCAASGSTFVPNAMGWYRQSPGKERELVAAISRSAGSTYYADSVKGRFTISRDNAKNTVYLQMNSLKPEDTAVYYCAADSLTYIAYDYWGQGTQVTVSS,high polyreactivity
14,QVHLVESGGGLVQAGGSLRLSCAATGLTFHKYAMGWYRQSPGKERELVAAISSSGGSTYYADSVKGRFTISRDNAKNTVYLQMNSLKPEDTAVYYCATRLPYYTHAGYNYWGQGTQVTVSS,high polyreactivity
15,QVQLVESGGGLVQAGGSLRLSCAASGIIFRGNSMGWYRQAPGKERELVAAIRFSGGSTYYADSVKGRFTISRDYAKNTVYLQMNSLKPEDTAVYYFAATRRRYGSTTSEYYYWGQGTQVTVSS,high polyreactivity
16,QVQLVESGGGLVQAGGSLRLSCAASGSIFESYAMGWYRQAPGKERELVAAITKRGGSTYYADSVKGRFTISRDNAKYTVYLQMNSLKPEDTAVYYCNARWPGIGPIYDYCGQGTQVTVSS,low polyreactivity

row,Sequence,polyreactivity (PSR sort gate)
1,QVQLVESGGGLGQAGGSLRLSCAASGRILKYYDMGWYRQAPGKERELVAAISVSGTSTYYADSVKGRFTISRDNAKNTVYLQMNSLKPEDTAVYYCATATGRYSFDYWGQGAQVTVSS,low polyreactivity
2,QVQLVESGGGLVQAGGSLRLSCAASGRTFRTNVMGGYIQAPGKERELVADISKRGGSTYYADSVKGRFTISRDNAMNTVYVQINSQKPDDTAVYYCAADYSPYYYHQGDYWGQGTQVTVSS,high polyreactivity
3,QVQLVESGGGLVQAGGSLRLSCAASGRTFPAYAMGWYRQAPGKERELVAAISYSGGRTRYADSVKGRFTISRDNAMNSVYLQMNSLKPEDTAVYFCNRVIPTQSLRDYYWGQGTQVTVSS,high polyreactivity
4,QVQLVESGGGLVQAGGSLRLSCAASGSTFWYYAMGWYRQAPGKERELVAAIRWSDGSTYYADSVKGRFTISRDNAKNTVYLQMNSLKPEDTAVYYCEYYYWGQGTQVTVSS,low polyreactivity
5,QVQLVESGGGLVQAGGSLRLSCAASGSTFSYYAMVWYRQAPGKERELVADISSGGSTNYADSVKGRFTISRDNAKNTVYLQMNSLKPEDTAVYYCNRRYSYYDGFDYWGQGTQVTVSS,low polyreactivity
6,QVQLVESGGGLVQAGGSLRLSCAASGLTFKSYAMGWYRQAPGKERELVAAISWRGGRTYYADSVKGRFTISRDNAKNTVYLQMNSLKPEDTAVYYCNARSQQWWLSRYNYWGQGSQVTVSS,high polyreactivity
7,QFQLVESGGGLVHAGGSLRLICAASGRILYKYAMGWYRQAPGKERELVAAISGSGGRTYYADSVKGRFTISRDNAKNTVYLQMNSLKPEDTPVYYCAAVHPFRHVMYDYWGQGTQVTVSS,low polyreactivity
8,QVQLVESGGGLVQAGGSLRLSCAASGRIFGRNTMGWYRQAPGKERELVAVISFRGGSTYADSVKGRFTISRDNAKNTVYLQMNSLKPEDTAVYYCARTAYSTRPYRFDYWGQGTQVTVSS,high polyreactivity
9,QVQLVESGRGLVQAGGSLRLSCAASGFTIDYYAIAWYRQAPGKERELVADISSDGSTYADSVKGRFTISRDNAKNTVYLQMNSLKPEDTAVYYCNAYLSKYFRYDYWGQGTQVTVSS,high polyreactivity
10,QVQLVESGGGLFQAGRSLRLSCAASGRIFVANAMGWYRQAPGIERELVAAISGRGSRTYYADSVKGRFTISRDNAKNTVYLQMNSLKPEDTAVYYCAARYRYDGRYDYWGQGTQVTVSS,high polyreactivity
11,QVQLVESGGGLVQAGGSLRLSCAASGLTFFYYAMGWYRQAPGKERELVASISSSGITNYADSVKGRFTISRDNAKNTVYLQMNSLKPEDTAVYYCASQYYISPLRYYSPTGGYWGQGTQVTVSS,high polyreactivity
12,QVQLVESGGGLVQAGGSLRLICAASGSTFKRYAMGWYRQAPGKERELVAAISLSSGSTYYADSVKGRFTISRDNAKNTVYLQMNSLKPEDTAVYYCNAAKTYPDVYEYDYWGQGTQVTVSS,high polyreactivity
13,QVQLVESGGCLVQAGGSLRLSCAASGFTFWRNVMGWYRQAPGKERELVAVISRGGSTNYADSVKGRFTISRDNAMNTVYLQMNSLKPEDTAVYYCAKYARGPSKVDYWGQGTQVTVSS,high polyreactivity
14,QVQLVESGGGLVQAGGSLRLSCAASGYILTHYAMGWYRQAPGKERELVAAITRVGNTNYADSVKGRFTISRDNAKNTVYLQMNSLKPEDTAVYYCAADGVASLFGDPPTEFDYWGQGTQVTVSS,low polyreactivity
15,QVQLVESGGGLVQAGGSLRLSCAASGRTFEQNAMGWYRQAPGKEREFVAAITASSGRTSYADSVKGRFTISRDNAKNTVYLQMNSLKPEDTAVYDCAADLADRERRHNYWGQGTQVTVSS,low polyreactivity
16,QVQLEESGGGLVQAGGTLRLSCAASGSIFYGYAMGWYRKATGKQRDLVAVITDGGGSTYYADSVKGRFTISRDNAKNTVYLQMNSLKPEDTAVYYCAADSWGRYYYSSYSYDYWGQGTQVTVSS,low polyreactivity
